From the supplement of paper PMC7125110
± gives the standard error. For some of these results: This sample holds only a part of the variants without activity.

B1: glmS ribozyme (parent)
chain: AUAAAAGCGCCAGAACUACAGAAAUGUAGUUGACGAGGAGGAGGUUUAUCGAAUUUUCGGCGGAUGCCUCCAAA

How the values were obtained:
Details in all cases: with glucosamine-6-phosphate
glucosamine-6-phosphate [1] = variants of: B1; test: kcat; higher = faster cleavage; RNA array
Method in brief: (§1)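 On sequenced MiSeq chips, barcoded ribozyme variants were made in situ by E. coli RNA polymerase and followed at 37 °C through a hybridised Cy3 probe. Glucosamine-6-phosphate was flowed in at 40 μM to 10 mM in HEPES/KCl/Mg(OAc)2 buffer. Exponential fits to normalised per-tile medians gave kobs, and weighted Michaelis–Menten fits gave kcat and KM.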

glucosamine-6-phosphate [2] = variants of: B1; test: KM; higher = weaker cofactor use; RNA array
Method in brief: as §1

glucosamine-6-phosphate [3] = variants of: B1; test: self-cleavage kobs at 160 uM GlcN6P; higher = faster cleavage; RNA array
Method in brief: as §1

glucosamine-6-phosphate [4] = variants of: B1; test: self-cleavage kobs at 640 uM GlcN6P; higher = faster cleavage; RNA array
Method in brief: as §1

glucosamine-6-phosphate [5] = variants of: B1; test: self-cleavage kobs at 2500 uM GlcN6P; higher = faster cleavage; RNA array
Method in brief: as §1

glucosamine-6-phosphate [6] = variants of: B1; test: self-cleavage kobs at 10000 uM GlcN6P; higher = faster cleavage; RNA array
Method in brief: as §1

glucosamine-6-phosphate [7] = variants of: B1; test: self-cleavage kobs at 40 uM GlcN6P; higher = faster cleavage; RNA array
Method in brief: as §1

| Variant | kcat (glucosamine-6-phosphate [1]) [s⁻¹] | KM (glucosamine-6-phosphate [2]) [µM] | self-cleavage kobs at 160 uM GlcN6P (glucosamine-6-phosphate [3]) [s⁻¹] | self-cleavage kobs at 640 uM GlcN6P (glucosamine-6-phosphate [4]) [s⁻¹] | self-cleavage kobs at 2500 uM GlcN6P (glucosamine-6-phosphate [5]) [s⁻¹] | self-cleavage kobs at 10000 uM GlcN6P (glucosamine-6-phosphate [6]) [s⁻¹] | self-cleavage kobs at 40 uM GlcN6P (glucosamine-6-phosphate [7]) [s⁻¹] |
| --- | --- | --- | --- | --- | --- | --- | --- |
| AUAAAAGCGCCAGCACUACAGAAAUGUAGUUGACGAGGAGGAGGUUUAUCGAAUUUUCGGCGGAUGCCACCAAA [A14C U69A] | 0.000125 ± 1.5e-05 | 380 ± 170 | 2.61e-05 ± 1.2e-05 | 9.86e-05 ± 1.9e-05 | 0.000115 ± 1.8e-05 | 0.00011 ± 1.8e-05 | – |
| AUAAAAGCGCCAGAACUACAGAAAUGUAGUUGACGAGGAGGAGAUUUAUCGAAUUUUCGGCGGAUGACUCCAAA [G44A C67A] | 0.0103 ± 0.0048 | – | 0.000422 ± 0.00011 | 0.00141 ± 0.00018 | 0.00541 ± 0.00076 | 0.00737 ± 0.0013 | 0.00024 ± 4e-05 |
| AUAAAAGCGCCAGAACUACAGAAAUGUAGUUGACGAGGAGGAGGUUUAUCGAAUUUUCGGCGAAUGCCUCGAAA [G63A C71G] | 2.96e-05 ± 9.4e-06 | – | – | – | – | – | < 1e-05 |
| AUAAAAGCACCACAACUACAGAAAUGUAGGUGACGAGGAGGAGGUUUAUCGAAUUUUCGGCGUAUGCCGCCAAA [G9A G13C U30G G63U U69G] | < 1e-05 | – | – | – | < 1e-05 | – | < 1e-05 |
| AUAAAAGCGCCAGAACUACAGAAAUGUAGUUGACGAGGAGGAGGUUCAUCGAAUUUUCGGCGGAUGCCUCGAAA [U47C C71G] | 0.000277 ± 6.2e-05 | – | – | 0.000116 ± 1.9e-05 | 0.000253 ± 3.8e-05 | 0.000197 ± 5.1e-05 | – |
| AUAAAAGCGCCAGAACUACAGAAAUGUAGUUGACGAGGAGGAGGUUUAACGAAUUUUCGGCGGAGGCCUCCAAA [U49A U65G] | < 1e-05 | – | < 1e-05 | – | – | < 1e-05 | – |
| AUAAAAGCGUCAGAACUACAGAAAUGUAGUUGACGAGGAGGAGGUUUAUCGAAUUUUCGGCGGAUGCUUCCAAA [C10U C68U] | 1.42e-05 ± 6.5e-06 | – | – | – | – | – | < 1e-05 |
| AUAAAAGCGCCAGAGCUACAGAAAUGUAGUUGACGAGGAGGAGGUUUAUCAAAUUUUCGGCGGAUGCCUCCAAA [A15G G51A] | < 1e-05 | – | < 1e-05 | < 1e-05 | – | – | – |
| AUAAAAGCGCUAGCACUACAGAAAUGUAGUUGACGAGGAGGAGGUUUAUCGAAUUUUCGGCGGAUGCCUUCAAA [C11U A14C C70U] | 0.000322 ± 0.00016 | – | – | 0.000221 ± 4.6e-05 | 0.000599 ± 0.00016 | 0.000224 ± 6.8e-05 | – |
| AUAAAAGCGCCAGAACUACAGAAAUGUAGUUGACGAGGAGGAGGUUUAUCGAAUCUUCGGCGGGUGCCUCCAAA [U55C A64G] | 0.000719 ± 0.00011 | 1350 ± 370 | 6.7e-05 ± 1e-05 | 0.000233 ± 3e-05 | 0.000568 ± 7e-05 | 0.000595 ± 6.1e-05 | 4.14e-05 ± 1.2e-05 |
